Measurements from paper PMC3817195, “Crystal Structure of a Four-Layer Aggregate of Engineered TMV CP Implies the Importance of Terminal Residues for Oligomer Assembly” (PLoS ONE, 2013).

What was measured:
[1] = target: the molecule itself; experiment: SEC; freshly purified protein, 20 mM sodium phosphate, 100 mM NaCl, pH 8.0; superdex 200, 4°C
[2] = target: the molecule itself; experiment: native gel or EMSA; native-PAGE on ice (4% stacking, 17% separating gel, Tris-Gly pH 8.8); samples equilibrated overnight in 10 mM PB pH 7.2, 100 mM NaCl

Protein	stoichiometry N [1]	binding result [2]
N-His-TMV CP^19 (tobacco mosaic virus coat protein, N-terminal six-His tag, C-terminal residues 155-158 truncated) (domain or fragment, Tobacco mosaic virus (common strain) coat protein, residues 1-154; Gly155, Pro156, Ala157 and Thr158 deleted at the C-terminus; no tag cleavage is described; Oligomeric state depends on buffer: monomer and dimer, 20S, disks, four-layer aggregate, rods; also called genetically engineered TMV CP; truncated TMV CP; source: E. coli BL21 (DE3) RIL, purified (HisTrap, gel filtration on superdex 200); …) SYSITTPSQFVFLSSAWADPIELINLCTNALGNQFQTQQARTVVQRQFSEVWKPSPQVTVRFPDSDFKVYRYNAVLDPLVTALLGAFDTRNRIIEVENQANPTTAETLDATRRVDDATVAIRSAINNLIVELIRGTGSYNRSSFESSSGLVWTS	2	–
wild type TMV CP (tobacco mosaic virus coat protein) (natural protein, also called WT TMV CP; wild TMV CP) SYSITTPSQFVFLSSAWADPIELINLCTNALGNQFQTQQARTVVQRQFSEVWKPSPQVTVRFPDSDFKVYRYNAVLDPLVTALLGAFDTRNRIIEVENQANPTTAETLDATRRVDDATVAIRSAINNLIVELIRGTGSYNRSSFESSSGLVWTSGPAT	–	binds
